Source: patent US7867500B2, “Cofactor that modulates steroid receptor activities” (The United States of America as represented by the …, priority 2004, dated 2011)

Biological target: T1, GR (Rattus norvegicus, UniProt P06536)
T1 construct: expressed in transfected cells; host or cells: Cos-7
T1 sequence (P06536 1-795): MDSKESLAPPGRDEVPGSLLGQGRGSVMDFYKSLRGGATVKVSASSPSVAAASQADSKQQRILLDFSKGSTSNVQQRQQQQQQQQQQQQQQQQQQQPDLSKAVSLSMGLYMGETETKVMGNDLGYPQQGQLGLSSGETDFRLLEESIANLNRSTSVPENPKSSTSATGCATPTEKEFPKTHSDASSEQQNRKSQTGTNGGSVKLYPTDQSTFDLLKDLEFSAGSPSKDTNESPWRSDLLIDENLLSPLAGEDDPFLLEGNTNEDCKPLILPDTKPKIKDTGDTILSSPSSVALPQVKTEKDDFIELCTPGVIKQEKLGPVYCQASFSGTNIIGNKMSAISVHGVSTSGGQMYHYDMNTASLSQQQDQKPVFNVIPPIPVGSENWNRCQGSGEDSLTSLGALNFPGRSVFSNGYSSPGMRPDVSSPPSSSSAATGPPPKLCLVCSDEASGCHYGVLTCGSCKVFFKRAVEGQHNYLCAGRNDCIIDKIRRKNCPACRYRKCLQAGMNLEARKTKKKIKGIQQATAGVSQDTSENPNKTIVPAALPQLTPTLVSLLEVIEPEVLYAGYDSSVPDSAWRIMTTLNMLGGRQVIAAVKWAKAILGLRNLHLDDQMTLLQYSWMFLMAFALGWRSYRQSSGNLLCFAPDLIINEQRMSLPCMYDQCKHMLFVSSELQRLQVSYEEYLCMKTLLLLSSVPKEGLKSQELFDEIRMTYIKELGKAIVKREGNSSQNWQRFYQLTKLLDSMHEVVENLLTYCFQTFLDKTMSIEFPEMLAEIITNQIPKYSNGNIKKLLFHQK
T1 sequence (Q6EMB2 5-1281 A149V/F1267S partner limits assumed): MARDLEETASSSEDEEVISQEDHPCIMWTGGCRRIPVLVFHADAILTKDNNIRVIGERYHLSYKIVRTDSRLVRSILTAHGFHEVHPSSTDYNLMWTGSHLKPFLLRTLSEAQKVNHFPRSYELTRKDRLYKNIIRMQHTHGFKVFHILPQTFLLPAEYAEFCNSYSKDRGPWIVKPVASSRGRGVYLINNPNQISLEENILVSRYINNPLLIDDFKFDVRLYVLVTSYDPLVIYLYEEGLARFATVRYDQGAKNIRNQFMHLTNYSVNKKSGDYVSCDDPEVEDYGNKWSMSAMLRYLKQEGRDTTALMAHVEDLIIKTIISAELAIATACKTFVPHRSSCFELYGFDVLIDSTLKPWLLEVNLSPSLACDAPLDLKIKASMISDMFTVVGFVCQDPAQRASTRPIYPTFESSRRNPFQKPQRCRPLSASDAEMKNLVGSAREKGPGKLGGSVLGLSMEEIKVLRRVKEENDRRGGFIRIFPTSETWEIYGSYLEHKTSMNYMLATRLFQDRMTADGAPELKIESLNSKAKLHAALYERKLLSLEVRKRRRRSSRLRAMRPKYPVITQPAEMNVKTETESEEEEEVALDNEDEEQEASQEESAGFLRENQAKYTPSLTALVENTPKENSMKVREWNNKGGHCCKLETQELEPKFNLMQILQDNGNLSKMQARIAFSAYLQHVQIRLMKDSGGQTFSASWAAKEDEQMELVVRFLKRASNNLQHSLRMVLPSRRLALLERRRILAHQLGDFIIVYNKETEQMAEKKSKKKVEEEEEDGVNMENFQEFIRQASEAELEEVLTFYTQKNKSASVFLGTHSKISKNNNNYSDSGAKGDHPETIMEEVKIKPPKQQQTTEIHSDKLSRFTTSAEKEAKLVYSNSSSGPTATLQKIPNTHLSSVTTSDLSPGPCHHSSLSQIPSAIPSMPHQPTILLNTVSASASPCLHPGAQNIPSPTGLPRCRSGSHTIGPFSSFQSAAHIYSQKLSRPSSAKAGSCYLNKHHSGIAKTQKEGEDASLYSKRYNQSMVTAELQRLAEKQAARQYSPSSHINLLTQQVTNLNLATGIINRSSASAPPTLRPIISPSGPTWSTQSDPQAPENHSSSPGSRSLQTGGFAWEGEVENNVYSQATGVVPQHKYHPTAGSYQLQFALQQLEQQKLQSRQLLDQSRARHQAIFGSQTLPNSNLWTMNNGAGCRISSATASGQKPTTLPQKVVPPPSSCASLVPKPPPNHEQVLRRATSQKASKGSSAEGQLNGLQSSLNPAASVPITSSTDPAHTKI
Experiment: Whole cell co-immunoprecipitation in Cos-7 cells: GR
Format: binding
Conditions: EtOH ± 1 μM Dex, 2 hr
Protocol: FIG. 7C1-3 illustrate whole cell co-immunoprecipitation of STAMP, GR, and TIF2/GRIP1. Cos-7 cells that had been co-transfected with Flag/STAMP (or Flag itself), HA/GRIP1, and GR plasmids (10 μg of each/150 mm dish) for 48 hr were treated for 2 hr with EtOH±1 μM Dex before being lysed as described in Example 1. Lysate was either analyzed on SDS-PAGE gels or treated with anti-Flag antibody to immunoprecipitate Flag/STAMP. The pellets were separated on SDS-PAGE gels and Western blotted with anti-Flag (FIG. 7C1), anti-HA (FIG. 7C2), or anti-GR antibodies (FIG. 7C3). In each panel, lane 1=5.7% of input lysate, lane 2=IP pellet of Flag/STAMP, HA/GRIP1, and GR+EtOH, lane 3=IP pellet of Flag/STAMP, HA/GRIP1, and GR+Dex, and lane 4=control IP pellet of Flag, HA/GRIP1, and GR+EtOH. Similar results were obtained in a second experiment.
Immunoprecipitations were conducted as generally described in Wang et al. (2004) Mol. Endocrinol. 18: 1476-95, with slight modifications. The day before transfection, Cos-7 cells were seeded into 150 mm dishes at 200,000 cells per dish containing 20 ml of media. On the next day, about 30 μg of DNA/dish was transfected with 60 μl of FuGene reagent. […]

B1: STAMP: SRC-1 and TIF2 Associated Modulatory Protein, 1277 amino acid human polypeptide, expressed from transfected plasmid (protein)
chain: T1 sequence (Q6EMB2 5-1281 A149V/F1267S partner limits assumed)
co-immunoprecipitation of GR with Flag-STAMP by anti-Flag antibody: co-immunoprecipitated
